From patent US9193770

Target: TLR5 of the luciferase reporter assay
Assay: cell-based or functional assay

## native H7 flagellin purified from E. coli O157:H7 (ligand)
  luciferase reporter assay, TLR5 activity: 0.1 ng/mL
